First the molecules themselves.
B1: RNA-silencing factor ers1 (Schizosaccharomyces pombe (strain ATCC 38366 / 972)), O94717 (parent)
chain: MGKVSANNQSGFFKFYIDTALLLNAEFISSFTNCINSEYNGKVKISYSSSSQQFKVIVYEEHKREAFSLFEEIVQKLKRESTVYKKPRLDIHPFGQLHYDFTTLLNFQRYLDLGYGIEDVKIKENEDIVKSKVGKKPTSSDFYIPCLIKPKIITPFEWEGNFKQVIYSPTVYNGSFKRLFYLPDNNDLLKEFAHATNTKYKASLKDNKIVVLANNDQDINAMLEKMKHIENLVSQKVYEYPEETLVYAGKIAPCQLKFLKLKFENEILYTAMHTTSIFKSVFNILGSFYTMRLLRNKHDGDSYELVPVFAKNPSKTPPCNDNFKIFSDDIKLIGCKIFAGVSLNFSSPKPAHRFYELNKTSSNLSIPVLQKPSNFHSSSTELSDNSIHQGRRAVDPVVNQNNPSNFEEMIMNKLNKLPTIDKQILGTSSLTHFQDKTTAIEHSINKSNSKQPPRFKFQLPPRPTSNTLPLEPEEELVTRYSVSSDGNTVDEAITKQSQTFQLVNSNEFNEVNANDVHKSLRQNCAKLDFDDSKSKNLLSVECLELDKGSDCSTPKSGSLTPSIDMKFLRLQDEKMDDLGDNYYTILMSSNPVSSYGVGSLYLFQPKIVCSEKYINHEEIDNMNLKSLHRWLSRSLHVLQSFSGEIELNLEFGVILYPNISSDVSACSHGFMNIYKDLNLPRSYFADCITKSVSNIDSLLNTPVKILFGRTEYTYPLIEHEVLDSKNYFVFKGSLLFTDDKRNKTEDSTVFFSMICSSKLDQFAFYKDSKQSSTCTINFPLALWDSRLRIETKVPLNDAILTEFSKSIRFRNVNKDLLLVFGNMEDRVIIHSVTRINENSVPFNKNLLPHSLEFILKCSKVKSYDISPSSINSKEAFVCLDRSKESKPIESCFSLSIQSVYMQSQFKYNNSIRAGETAPWKLANKQFIGGAITENVSDLYTAAIIMVNQLGGIHPTI
partner: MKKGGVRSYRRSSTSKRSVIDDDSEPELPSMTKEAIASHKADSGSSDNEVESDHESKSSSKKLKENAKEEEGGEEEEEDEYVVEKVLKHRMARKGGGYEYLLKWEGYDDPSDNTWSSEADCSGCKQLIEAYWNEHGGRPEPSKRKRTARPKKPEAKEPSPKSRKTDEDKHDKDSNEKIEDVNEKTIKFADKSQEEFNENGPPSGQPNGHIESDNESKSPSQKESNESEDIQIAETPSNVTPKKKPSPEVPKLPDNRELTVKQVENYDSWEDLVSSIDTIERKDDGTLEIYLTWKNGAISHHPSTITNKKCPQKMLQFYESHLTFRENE
B2: RNA-silencing factor ers1 (Schizosaccharomyces pombe (strain ATCC 38366 / 972)), O94717 (parent)
chain: B1 chain
partner: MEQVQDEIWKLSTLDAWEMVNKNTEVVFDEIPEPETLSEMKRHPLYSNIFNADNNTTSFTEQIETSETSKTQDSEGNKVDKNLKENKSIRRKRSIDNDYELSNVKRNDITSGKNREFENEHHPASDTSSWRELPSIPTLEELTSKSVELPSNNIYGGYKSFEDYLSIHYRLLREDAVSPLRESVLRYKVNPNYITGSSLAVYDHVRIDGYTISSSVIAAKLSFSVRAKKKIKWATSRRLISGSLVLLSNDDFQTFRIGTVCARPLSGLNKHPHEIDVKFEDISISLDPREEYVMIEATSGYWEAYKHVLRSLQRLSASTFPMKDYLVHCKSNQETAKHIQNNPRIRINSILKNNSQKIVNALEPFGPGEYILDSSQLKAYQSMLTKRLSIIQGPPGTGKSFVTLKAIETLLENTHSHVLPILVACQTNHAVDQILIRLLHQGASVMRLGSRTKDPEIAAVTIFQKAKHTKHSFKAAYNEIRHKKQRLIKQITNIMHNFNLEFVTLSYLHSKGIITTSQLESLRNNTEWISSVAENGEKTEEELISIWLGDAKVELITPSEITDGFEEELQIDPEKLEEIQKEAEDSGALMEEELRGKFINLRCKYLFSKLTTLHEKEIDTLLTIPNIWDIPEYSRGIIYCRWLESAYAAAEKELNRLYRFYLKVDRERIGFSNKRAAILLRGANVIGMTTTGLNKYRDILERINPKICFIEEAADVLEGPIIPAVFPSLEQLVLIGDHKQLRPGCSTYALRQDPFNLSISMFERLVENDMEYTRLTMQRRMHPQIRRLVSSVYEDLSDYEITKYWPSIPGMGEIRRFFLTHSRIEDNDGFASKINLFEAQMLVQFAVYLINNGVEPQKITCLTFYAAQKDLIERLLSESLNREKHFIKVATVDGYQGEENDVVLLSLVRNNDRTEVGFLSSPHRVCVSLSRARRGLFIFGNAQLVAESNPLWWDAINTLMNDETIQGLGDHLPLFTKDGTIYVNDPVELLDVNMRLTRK

The variants in one test derive from B1. The conditions noted are these: with swi6_schpo swi6, P40381.
As to S234P, the “effect of a mutation on the interaction” value is reported as “decreasing interaction strength”.

Variants of B2 are the subject of a further test. The conditions noted are these: with hrr1_schpo hrr1, O74465.
As for S234P, the “effect of a mutation on the interaction” value was “decreasing interaction strength”.

The values are drawn from IntAct's records for PubMed 22474355.
